Results from PMC2725194.

Legend:
Assay in all cases: AlphaScreen or HTRF
[1] = target: PPARα ligand binding domain (LBD)
[2] = target: PPARγ ligand binding domain (LBD)
[3] = target: PPARδ ligand binding domain (LBD)

Measured: AlphaScreen signal

N-terminal biotinylated CBP1 peptide
< 800: all assays above
